Values of other authors, collected in PMC5430633.

Target: LC3B (Homo sapiens) (UniProt Q9GZQ8)

In the case of Nix LIR (from UniProt O60238), the Kd is listed as 91 µM.
